Reference: paper PMC8871863, “Initiator-Directed Transcription: Fission Yeast Nmtl Initiator Directs Preinitiation Complex Formation and Transcriptional Initiation” (Genes, 2022)

Target: T1, TFIIB (fission yeast (S. pombe), UniProt O13749 1-340)
T1 construct: transcription initiation factor TFIIB of fission yeast, recombinant; also called recombinant fission yeast TFIIB
T1 sequence (looked up): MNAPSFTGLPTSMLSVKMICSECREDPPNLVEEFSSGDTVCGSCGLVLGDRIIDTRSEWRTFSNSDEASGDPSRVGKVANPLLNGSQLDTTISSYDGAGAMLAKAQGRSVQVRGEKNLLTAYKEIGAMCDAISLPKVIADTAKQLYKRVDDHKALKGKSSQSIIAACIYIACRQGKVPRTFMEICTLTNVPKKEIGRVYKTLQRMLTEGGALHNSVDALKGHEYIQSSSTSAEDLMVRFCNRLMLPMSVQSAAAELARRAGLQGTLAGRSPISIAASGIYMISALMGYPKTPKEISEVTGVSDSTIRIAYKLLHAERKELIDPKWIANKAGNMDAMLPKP
Assay: native gel or EMSA; purified factors incubated 5 min at 25 °C in 20 mM HEPES pH 7.9, 50 mM KCl, 5 mM MgCl2, 0.1 mM EDTA, 5% glycerol, 0.5% PEG 8000, 2 mM DTT, then 15 min at 30 °C with 32P-labelled nmt1 Inr DNA probe; 5% acrylamide gel at 4 °C; all complexes are formed on the DNA probe
Settings: both partners purified

B1: TBP (natural protein, fission yeast (S. pombe), UniProt P17871 1-231, looked up)
chain: MDFALPTTASQASAFMNNSSLTFPVLPNANNEATNETADSGDAEVSKNEGVSGIVPTLQNIVATVNLDCRLDLKTIALHARNAEYNPKRFAAVIMRIREPKSTALIFASGKMVVLGGKSEDDSKLASRKYARIIQKLGFNAKFTDFKIQNIVGSCDVKFPIRLEGLAYSHGTFSSYEPELFPGLIYRMVKPKVVLLIFVSGKIVLTGAKVREEIYQAFEAIYPVLSEFRKH
notes: also called fission yeast TBP
- binding result: binds
